Consider 13 compounds from patent US9056079B2, “Molecules interfering with binding of calbindin to inositol monophosphatase for the treatment of mood disorders” (Ben-Gurion University of the Negev Research and Development …, priority 2008, dated 2015).

By pKi is commonly meant the Ki on a negative log10 scale, so that one unit is a factor of ten.

In data set [1] the test system is IMPase. The note with it: 30 mM LiCl; cited from earlier work.
Data set [2] has as its target T1, IMPase (Bos taurus, UniProt P20456).
T1 sequence (P20456 1-277): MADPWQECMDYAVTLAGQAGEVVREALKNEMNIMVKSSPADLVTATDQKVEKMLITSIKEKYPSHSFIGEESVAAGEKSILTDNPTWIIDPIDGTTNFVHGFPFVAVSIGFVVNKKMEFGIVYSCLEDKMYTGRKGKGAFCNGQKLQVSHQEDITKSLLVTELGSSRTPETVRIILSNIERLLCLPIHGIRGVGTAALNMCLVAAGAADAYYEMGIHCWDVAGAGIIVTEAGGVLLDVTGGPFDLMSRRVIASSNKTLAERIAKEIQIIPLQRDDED
As to conditions: read-out: Ki, uncompetitive inhibition of IMPase; cited from earlier work.

Data set [3] deals with T2, calbindin-activated IMPase (Homo sapiens, UniProt P05937).
T2 sequence (P05937 1-261): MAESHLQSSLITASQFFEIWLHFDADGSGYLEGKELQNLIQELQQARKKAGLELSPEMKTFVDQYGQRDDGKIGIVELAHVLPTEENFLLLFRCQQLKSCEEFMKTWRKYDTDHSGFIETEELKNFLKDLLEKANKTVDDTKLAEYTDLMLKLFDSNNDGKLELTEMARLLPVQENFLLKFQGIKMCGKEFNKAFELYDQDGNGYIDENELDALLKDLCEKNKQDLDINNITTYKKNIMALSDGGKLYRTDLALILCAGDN
Briefly: IMPase activity in mouse brain crude homogenate in the presence of recombinant human calbindin and short peptides (malachite green phosphate assay). Set-up: from tissue; host or cells: mouse brain crude homogenate; key to IMPase Activity, nean ± SD: fraction of mean control value in each run. As to conditions: for IMPase Activity, nean ± SD / effect of peptide on the enhancement of IMPase activity by calbindin (in words): 10 μM peptide; for IMPase Activity, nean ± SD: values normalized to the mean of the control values in each run; for effect of peptide on the enhancement of IMPase activity by calbindin (in words): 20 μM calbindin. The data set is classed as biochemical. As for the experimental part: (§1) IMPase activity in mouse brain homogenates was measured as previously described [Cryns et al., 2008]. Inorganic phosphate liberated from inositol-1-phosphate was quantified spectrophotometrically in an ELISA reader (iEMS, Labsystems) using the malachite green color reagent. To study the effect of the synthetic peptides on the enhancing interaction between calbindin and IMPase the reaction was carried out in the presence of 20 μM human recombinant calbindin [Thulin and Linse, 1999] (produced by PPS, Rehovot, Israel, using the plasmid kindly donated by S. Linse, Lund, Sweden) and in the presence or absence of 10 μM of each of the peptides. In order to distinguish IMPase activity from non-specific phosphatases the reaction was carried out in the presence and absence of 30 mM LiCl. […] The enzyme activity was calculated as the difference between the activity values in absence and in the presence of Li. Values were normalized to the mean of the control values in each run.

Data set [4] relates to IMPase. Briefly: Basal IMPase activity in the presence of peptide but in the absence of calbindin (control for nonspecific effect). Format: biochemical. Here is the method:
To control for a possible nonspecific effect of short peptides on IMPase activity the enzyme's activity in the presence of Peptide 1 (but in the absence of calbindin) was assessed. […] Furthermore, possibilities were checked that there was a protease activity in the homogenate, and that eventual prior interaction between IMPase and calbindin prevents interference by the active peptides. To this end calbindin was preincubated with the homogenate for 10 min prior to the addition of the substrate. No difference in IMPase activity was found in these two experiments.
as §1, with “peptides.” for “peptides. In order to distinguish IMPase activity from non-specific phosphatases the reaction was carried out in the presence and absence of 30 mM LiCl.”, “Values were normalized to the mean of the control values in each run.” left out

Data set [5] addresses T2, calbindin-activated IMPase. Put plainly: IMPase activity in postmortem human brain crude homogenate in the presence of human recombinant calbindin. Format: biochemical. Set-up: from tissue; host or cells: postmortem human brain crude homogenate. Here is the method: The designed peptides were validated by in vitro IMPase activity measurements. As shown in the Examples (Table 1), IMPase activity of mouse brain crude homogenate is increased by 1.9 ±1.0 (S.D.) fold in the presence of 20 μM human recombinant calbindin. […] Peptides 2 through 4 (SEQ ID NO:2 through SEQ ID NO:4), which included the Lys-Glu-Lys motif or part of it, inhibited the activating interaction similarly to Peptide 1.
as §1

For data set [6], the target named is T2, calbindin-activated IMPase. Set-up: from tissue; host or cells: postmortem human brain crude homogenate. As to conditions: postmortem human prefrontal cortex crude homogenate; recombinant human calbindin; Shamir et al., 2005; cited from earlier work.
Where [7] appears, read: 20 μM human recombinant calbindin.

pKi: −log10 of the molar value. Like-named read-outs stand apart in the source and are kept apart here. Where no end group is shown, it is not given here.

Consider `[Cl-].[Li+]` [LiCl], for which the “inhibition of IMPase activity (in words)” value in the data set on IMPase [1] was “totally inhibits IMPase activity”. Turning to `[Li]` [lithium], at IMPase [2], the pKi was 3.10. On to IAAAYP [Peptide 8], for which the “IMPase Activity, nean ± SD” value in data set [3] (setting [7]) was 2.3 ± 1.7. Take IAEAYP [Peptide 6]: the “IMPase Activity, nean ± SD” value in data set [3] (setting [7]) was determined as 2.5 ± 1.1. On the same count and under the same terms, to IAEKYP [Peptide 4] belongs 1.1 ± 0.6. Turning to IKAKYP [Peptide 2], the “IMPase Activity, nean ± SD” value in data set [3] (setting [7]) stood at 0.9 ± 0.5. With IKEAYP [Peptide 3], the “IMPase Activity, nean ± SD” value in data set [3] (setting [7]) was determined as 1.0 ± 0.5. As for “IKEKYP [Peptide 1, hexapeptide identical to residues 58-63 of IMPase]”, in the data set with IMPase [4], the “effect on basal activity of IMPase” value is reported as “did not affect the basal activity of IMPase”. Also, the “effect of peptide on the enhancement of IMPase activity by calbindin (in words)” value (from here on “effect of peptide … by calbindin (in words)”) in data set [3] was “strongly reduced”. In data set [3] (setting [7]), the “IMPase Activity, nean ± SD” value came to 1.2 ± 0.9. In addition, the “effect of peptide on calbindin-activated IMPase (in words)” value in data set [5] is listed as “abolished this effect”.

For “Ile-Lys-Glu-Lys-Tyr (IKEKY; Peptide derived from the segment including residues 55-66 of IMPase) [Peptide 9]”, the “effect of peptide … by calbindin (in words)” value in data set [3] is “did not interfere with the enhancement of IMPase activity by calbindin”. Besides, in data set [3] (setting [7]), the “IMPase Activity, nean ± SD” value worked out at 1.9 ± 0.6. Turning to KHIKPS [Peptide 7], in data set [3] (setting [7]), the “IMPase Activity, nean ± SD” value was 1.4 ± 0.2. On to “Lys-Glu-Lys (KEK; Peptide derived from the segment including residues 55-66 of IMPase) [Peptide 10]”, for which the “effect of peptide … by calbindin (in words)” value in data set [3] was “did not interfere with the enhancement of IMPase activity by calbindin”. Also, in data set [3] (setting [7]), the “IMPase Activity, nean ± SD” value is 2.6 ± 1.2. Take SYEHKP [Peptide 5]: the “IMPase Activity, nean ± SD” value in data set [3] (setting [7]) is given as 1.4 ± 0.6. As to “calbindin: member of the vitamin-D-dependent calcium-binding proteins; binds IMPase residues 55-66 and enhances its activity”, in data set [3] (setting [7]), the “increase of IMPase activity by calbindin” value came to 1.9 ±1.0 fold and the “IMPase Activity, nean ± SD” value is listed as 1.9 ± 1.0. For the same compound, the “increase of human brain IMPase activity by calbindin” value in data set [5] is “three-fold”. For the same compound, in data set [6], the “increase of IMPase activity by calbindin” value was 3.5 fold.
